# “Also recorded” adds a separate entry of the source.
# How the values were obtained:
# RAG−/− (C57BL/6) mice = assay: Adoptive transfer model of IBD; assay type: in vivo, mouse; settings: for weight loss: 1×10^5 transduced Thy1.1+CD4+ cells plus 1×10^6 CD4+CD25− Teff cells i.p., weights monitored for 45 days; for histology of duodenal sections: duodenal samples collected at day 45, H&E
# Description: Adoptive transfer model of IBD—CD4+CD25− T cells were isolated from mesenteric lymph nodes using magnetic beads (Miltenyi) to >95% purity (by flow cytometry). CD4+CD25− T cells (1×10^6 cells) were co-injected i.p. into RAG1−/− (C57BL/6) mice along with Thy1.1+CD4+CD25− cells transduced with WT or mutated Foxp3 ([…]). Mice were monitored biweekly for clinical evidence of disease, including weight loss and stool consistency. RAG1−/− mice on the C57BL/6 background were purchased from Taconic Laboratory. Mice were housed in specific pathogen-free conditions, and used for studies approved by the institutional animal care and use committee of the Children's Hospital of Philadelphia.
# Pathology—Gut samples were paraffin embedded and stained by H&E, or snap-frozen and stained by immunoperoxidase using mAbs to Foxp3 and T cell subsets (73).
# To test the effects of the different Foxp3 mutants in vivo, RAG−/− (C57BL/6) mice were injected with 1×10^5 transduced Thy1.1+CD4+ cells expressing either WT-Foxp3 or a mutant Foxp3 (RKKR• (SEQ ID NO: 179), QNKR• (SEQ ID NO: 180), QNKR-- (SEQ ID NO: 180)) or empty vector (control), plus 1×10^6 CD4+CD25− Teff cells. Additional mice received CD4+CD25− Teff cells alone. The weights of the animals in each group were monitored weekly for 45 days.
# [1] = system: CD4+CD25− Teff cell proliferation; assay: Suppression assay: suppression of Teff cell proliferation by transduced CD4+ cells expressing Foxp3 forms; assay type: cell-based, mouse; settings: retrovirally transduced CD4+ cells expressing the Foxp3 form, co-cultured with CFSE-labeled CD4+CD25− T cells, 72 hr
# Description: Suppression assays—CD4+CD25+ (T-reg) and CD4+CD25− (T-eff) T cell and APC are isolated with magnetic beads following the manufacturer's instructions (Miltenyi). In some cases, 5×10^4 CD4+CD25− T cells were labeled with CFSE and stimulated with CD3 mAb (1 μg/ml) in the presence of irradiated syngeneic APC and varying ratios of activated CD4+ cells that had been transduced with different Foxp3 constructs. […] After 72 hours culture, cells were harvested and CD4+CD25− T cell proliferation was quantified by flow cytometry (Cyan) based on carboxylfluorescein diacetate succininyl ester (CFSE) profile of dividing effector T cells at 72 hr. Absolute numbers of effector T cells were determined by adding equal numbers of Dynabeads to each sample, and during FACS analysis gates were drawn on Dynabeads and collection time was based on set number of bead events for each sample. […]
# WT Foxp3 and engineered Foxp3 mutants (N-terminal cleaved, C-terminal cleaved and N -plus C-terminal-cleaved (double-cleaved)) were retrovirally expressed in CD4+ cells and the ability of the transduced cells to suppress Teff cell proliferation was measured.
Molecule,"survival (RAG−/− (C57BL/6) mice; 1×10^5 transduced CD4+ cells plus 1×10^6 CD4+CD25− Teff cells, 45 days)",weight loss (RAG−/− (C57BL/6) mice),histology of duodenal sections (RAG−/− (C57BL/6) mice),suppression of Teff cell proliferation [1]
"WT-Foxp3: wild-type mouse Foxp3, 429-aa, retrovirally expressed in CD4+ T cells (protein) MPNPRPAKPMAPSLALGPSPGVLPSWKTAPKGSELLGTRGSGGPFQGRDLRSGAHTSSSLNPLPPSQLQLPTVPLVMVAPSGARLGPSPHLQALLQDRPHFMHQLSTVDAHAQTPVLQVRPLDNPAMISLPPPSAATGVFSLKARPGLPPGINVASLEWVSREPALLCTFPRSGTPRKDSNLLAAPQGSYPLLANGVCKWPGCEKVFEEPEEFLKHCQADHLLDEKGKAQCLLQREVVQSLEQQLELEKEKLGAMQAHLAGKMALAKAPSVASMDKSSCCIVATSTQGSVLPAWSAPREAPDGGLFAVRRHLWGSHGNSSFPEFFHNMDYFKYHNMRPPFTYATLIRWAILEAPERQRTLNEIYHWFTRMFAYFRNHPATWKNAIRHNLSLHKCFVRVESEKGAVWTVDEFEFRKKRSQRPNKCSNPCP",survived,minor weight loss; also recorded: benefit,mild cell mononuclear cell infiltration and edema within villi; also recorded: mild mononuclear cell recruitment and villous edema,–
"QNKR--: 429-aa Foxp3 with RKKR replaced by QNKR, intact C-terminal tail resistant to proteolytic cleavage (protein, UniProt Q99JB6 1-429, looked up, variant R414Q K415N) Forkhead box protein P3: MPNPRPAKPMAPSLALGPSPGVLPSWKTAPKGSELLGTRGSGGPFQGRDLRSGAHTSSSLNPLPPSQLQLPTVPLVMVAPSGARLGPSPHLQALLQDRPHFMHQLSTVDAHAQTPVLQVRPLDNPAMISLPPPSAATGVFSLKARPGLPPGINVASLEWVSREPALLCTFPRSGTPRKDSNLLAAPQGSYPLLANGVCKWPGCEKVFEEPEEFLKHCQADHLLDEKGKAQCLLQREVVQSLEQQLELEKEKLGAMQAHLAGKMALAKAPSVASMDKSSCCIVATSTQGSVLPAWSAPREAPDGGLFAVRRHLWGSHGNSSFPEFFHNMDYFKYHNMRPPFTYATLIRWAILEAPERQRTLNEIYHWFTRMFAYFRNHPATWKNAIRHNLSLHKCFVRVESEKGAVWTVDEFEFQNKRSQRPNKCSNPCP",–,did significantly worse,marked mononuclear cell infiltration of villous processes; also recorded: extensive mononuclear cell recruitment,–
"C-cleaved PNNW mutant: short 417-aa Foxp3 in which the last four amino acids RKKR are replaced with PNNW (protein, UniProt Q99JB6 1-417, looked up, variant R414P K415N K416N R417W) MPNPRPAKPMAPSLALGPSPGVLPSWKTAPKGSELLGTRGSGGPFQGRDLRSGAHTSSSLNPLPPSQLQLPTVPLVMVAPSGARLGPSPHLQALLQDRPHFMHQLSTVDAHAQTPVLQVRPLDNPAMISLPPPSAATGVFSLKARPGLPPGINVASLEWVSREPALLCTFPRSGTPRKDSNLLAAPQGSYPLLANGVCKWPGCEKVFEEPEEFLKHCQADHLLDEKGKAQCLLQREVVQSLEQQLELEKEKLGAMQAHLAGKMALAKAPSVASMDKSSCCIVATSTQGSVLPAWSAPREAPDGGLFAVRRHLWGSHGNSSFPEFFHNMDYFKYHNMRPPFTYATLIRWAILEAPERQRTLNEIYHWFTRMFAYFRNHPATWKNAIRHNLSLHKCFVRVESEKGAVWTVDEFEFPNNW",–,–,–,loss in the suppression ability
"QNKR•: short 417-aa Foxp3 mutant without C-terminal tail, terminating with QNKR (protein, UniProt Q99JB6 1-417, looked up, variant R414Q K415N) MPNPRPAKPMAPSLALGPSPGVLPSWKTAPKGSELLGTRGSGGPFQGRDLRSGAHTSSSLNPLPPSQLQLPTVPLVMVAPSGARLGPSPHLQALLQDRPHFMHQLSTVDAHAQTPVLQVRPLDNPAMISLPPPSAATGVFSLKARPGLPPGINVASLEWVSREPALLCTFPRSGTPRKDSNLLAAPQGSYPLLANGVCKWPGCEKVFEEPEEFLKHCQADHLLDEKGKAQCLLQREVVQSLEQQLELEKEKLGAMQAHLAGKMALAKAPSVASMDKSSCCIVATSTQGSVLPAWSAPREAPDGGLFAVRRHLWGSHGNSSFPEFFHNMDYFKYHNMRPPFTYATLIRWAILEAPERQRTLNEIYHWFTRMFAYFRNHPATWKNAIRHNLSLHKCFVRVESEKGAVWTVDEFEFQNKR",–,negligible weight loss; also recorded: significantly more effective in controlling weight loss,minor mononuclear cell infiltration and edema,–
double-cleaved Foxp3: engineered Foxp3 lacking N-terminal 51-aa and C-terminal tail (366-aa) (protein) SGAHTSSSLNPLPPSQLQLPTVPLVMVAPSGARLGPSPHLQALLQDRPHFMHQLSTVDAHAQTPVLQVRPLDNPAMISLPPPSAATGVFSLKARPGLPPGINVASLEWVSREPALLCTFPRSGTPRKDSNLLAAPQGSYPLLANGVCKWPGCEKVFEEPEEFLKHCQADHLLDEKGKAQCLLQREVVQSLEQQLELEKEKLGAMQAHLAGKMALAKAPSVASMDKSSCCIVATSTQGSVLPAWSAPREAPDGGLFAVRRHLWGSHGNSSFPEFFHNMDYFKYHNMRPPFTYATLIRWAILEAPERQRTLNEIYHWFTRMFAYFRNHPATWKNAIRHNLSLHKCFVRVESEKGAVWTVDEFEFRKKR,–,–,–,suppressed Teff cell proliferation stronger than both WTFoxp3 and N-terminal-cleaved Foxp3

# Reference: patent publication US20100310635A1, “Compositions and Methods for Regulating T-Cell Activity” (priority 2007, published 2010)
